Key:
[1] = target: T1, human PD-1 (recombinant, titrated in BIAcore) (human, UniProt Q15116 25-170); assay: SPR BIAcore 3000; antibody captured by anti-human Fc, human PD-1 titrated;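 also: CM5 chip with amine-coupled goat anti-human Fc F(ab′)₂, HBS-EP running buffer at 10 µL/min, blank-surface-subtracted sensorgrams fitted in BIAevaluation 3.2 for kinetic constants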
T1 construct: extracellular domain; also called recombinant human PD-1 extracellular domain

[2] = target: T2, human PD-1 on cells (transfected HEK293 cells; human T cells) (human, UniProt Q15116 25-288); assay: flow cytometry on activated human T cells; unconstrained curve; unconstrained curve
T2 construct: whole, on cells; HEK293 cells transiently transfected with human PD-1 DNA; also called PD-1 expressing HEK293 cells; PD-1 transfected HEK cells
T2 sequence (Q15116 25-288): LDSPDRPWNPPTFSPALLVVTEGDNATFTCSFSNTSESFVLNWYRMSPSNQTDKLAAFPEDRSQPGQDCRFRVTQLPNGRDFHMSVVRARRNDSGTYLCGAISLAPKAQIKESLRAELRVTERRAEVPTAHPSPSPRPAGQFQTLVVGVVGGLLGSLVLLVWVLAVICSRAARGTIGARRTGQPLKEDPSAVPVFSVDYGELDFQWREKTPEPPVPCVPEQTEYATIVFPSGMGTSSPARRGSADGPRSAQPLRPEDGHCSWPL

[3] = target: T2, human PD-1 on cells (transfected HEK293 …); assay: flow cytometry on activated human T cells; top of curve constrained; top part of curve constrained to ~45 geo mean

T1 sequence (Q15116 25-170): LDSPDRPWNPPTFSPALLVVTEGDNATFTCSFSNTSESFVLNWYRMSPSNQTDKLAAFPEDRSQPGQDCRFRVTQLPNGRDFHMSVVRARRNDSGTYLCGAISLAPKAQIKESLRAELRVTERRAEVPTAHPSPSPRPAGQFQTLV

Kd [1]: 5.98 nM | EC50 [2]: 1.2 µg/mL | EC50 [3]: 3.61 µg/mL
B1: 949 chimeric (949 variable regions with human IgG4 constant domains) (antibody, V domains shown)
VH: QVQLQQSGAELVKPGASVKMSCKAFGYTFTTYPIEWMKQNHGKSLEWIGNFHPYNDDTKYNEKFKGKAKLTVEKSSTTVYLELSRLTSDDSAVYYCARENYGSHGGFVYWGQGTLVTVS
VL: ENVLTQSPAIMSASPGEKVTMTCRASSSVISSYLHWYQQKSGASPKLWIYSTSNLASGVPDRFSGSGSGTSYSLTISSVEAEDAATYYCQQYNGYPLTFGAGTKLEIK
notes: also called original CA949 construct, cLcH
